B1: Protein KASH5 (Mus musculus), Q80VJ8 (parent)
chain: MHSILRSSLSSREALRMRQLKGLRKERPGRHPLGVRLRAIWTSFLFPNPPHSGGKLRASTAAVEEHQEWSMDLPEGQAGGPTAQMYLWEQPEEASSRPLLSLEEQILNSTFEACDPHKTGTVTVAHLLAYLEAVTGQGPQDVRLQTLARSLDPYGEGAGATVELDTFLVVMRDWIAACQLQGGLERAEETAYEGALASPHLPSVCPEAEESANLESFGGEDPRPEGPATAELLSNLEDLELSNRRLAGENAKLQRSVETAEEGSARLGEEITALRKQLRSTQQALQVAKALDEELEDLKTLAKSLEEQNRSLMAQARHTEKEQQHLAAEVETLQEENEKLLAERDGVKRRSEELATEKDALKRQLCECERLICQREAVLSERTRHAESLARTLEEYRTTTQELRQEISNLEEQLSQSQEGPEELLEGAEAGRVGWIMALPPSLDLEIQAIRQEQDVASAGLSSPLYGVWQWEEVEPEPEPEPEPEPEPEPQEVEFPSEDPARQQTDLQREPVRALEGSRAPCLRLSRSQEEEEEEEESWVLADPSSPLGTYHHKLAPGSSRESCHIVPEMHQALMPVVRDLVPVERSRTQHCLHPQHSPGIRISQHPLVPTPVLGLLLLLLLSILLFSQSPPPTWPHLQLYYLQPPPV
B2: Protein KASH5 (Mus musculus), Q80VJ8 (parent)
chain: B1 chain
partner: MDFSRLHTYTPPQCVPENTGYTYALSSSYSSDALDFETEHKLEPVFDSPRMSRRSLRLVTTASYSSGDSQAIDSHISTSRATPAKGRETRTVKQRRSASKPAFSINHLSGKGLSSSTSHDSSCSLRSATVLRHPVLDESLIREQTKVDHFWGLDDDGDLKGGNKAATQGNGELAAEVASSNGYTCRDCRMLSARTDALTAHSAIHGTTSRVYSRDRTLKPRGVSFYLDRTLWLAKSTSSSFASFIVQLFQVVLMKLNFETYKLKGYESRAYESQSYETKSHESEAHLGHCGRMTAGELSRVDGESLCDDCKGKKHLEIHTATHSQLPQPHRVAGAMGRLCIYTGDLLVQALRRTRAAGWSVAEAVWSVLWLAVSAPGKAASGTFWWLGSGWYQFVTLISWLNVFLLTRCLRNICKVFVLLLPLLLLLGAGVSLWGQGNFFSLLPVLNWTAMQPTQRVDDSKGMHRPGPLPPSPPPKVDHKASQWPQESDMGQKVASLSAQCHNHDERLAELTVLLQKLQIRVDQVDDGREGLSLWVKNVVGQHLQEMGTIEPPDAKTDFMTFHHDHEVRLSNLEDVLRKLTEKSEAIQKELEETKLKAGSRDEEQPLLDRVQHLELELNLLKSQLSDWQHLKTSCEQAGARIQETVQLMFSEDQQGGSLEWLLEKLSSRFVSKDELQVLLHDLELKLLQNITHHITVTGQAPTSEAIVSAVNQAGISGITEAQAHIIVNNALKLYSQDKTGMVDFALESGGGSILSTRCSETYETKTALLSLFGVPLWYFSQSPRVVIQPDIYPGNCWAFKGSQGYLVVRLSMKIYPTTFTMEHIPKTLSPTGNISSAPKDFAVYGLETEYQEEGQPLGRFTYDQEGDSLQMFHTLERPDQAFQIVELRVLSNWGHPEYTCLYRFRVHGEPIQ
B3: Protein KASH5 (Mus musculus), Q80VJ8 (parent)
chain: B1 chain
partner: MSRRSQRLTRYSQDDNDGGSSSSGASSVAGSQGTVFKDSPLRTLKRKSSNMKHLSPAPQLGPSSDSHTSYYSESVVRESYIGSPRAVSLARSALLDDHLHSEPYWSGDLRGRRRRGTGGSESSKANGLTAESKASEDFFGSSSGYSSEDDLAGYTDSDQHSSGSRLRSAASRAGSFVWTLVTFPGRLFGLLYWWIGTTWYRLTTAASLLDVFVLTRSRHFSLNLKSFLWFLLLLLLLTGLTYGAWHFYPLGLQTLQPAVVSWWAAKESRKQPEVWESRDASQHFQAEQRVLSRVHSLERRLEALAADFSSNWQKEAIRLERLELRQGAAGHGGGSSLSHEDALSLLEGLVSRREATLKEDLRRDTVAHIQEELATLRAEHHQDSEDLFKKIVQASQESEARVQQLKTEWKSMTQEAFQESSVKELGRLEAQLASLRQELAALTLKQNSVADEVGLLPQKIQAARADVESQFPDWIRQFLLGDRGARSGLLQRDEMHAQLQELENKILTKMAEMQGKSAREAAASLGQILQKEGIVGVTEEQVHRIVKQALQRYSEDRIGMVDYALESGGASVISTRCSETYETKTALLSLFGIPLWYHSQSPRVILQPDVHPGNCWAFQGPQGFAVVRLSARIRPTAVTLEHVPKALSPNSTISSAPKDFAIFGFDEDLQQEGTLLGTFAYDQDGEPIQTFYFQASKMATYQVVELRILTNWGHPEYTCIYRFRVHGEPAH

Variants of: B1
Conditions: with sun1_human SUN1, O94901
Chain of sun1_human SUN1, O94901 (O94901 whole entry): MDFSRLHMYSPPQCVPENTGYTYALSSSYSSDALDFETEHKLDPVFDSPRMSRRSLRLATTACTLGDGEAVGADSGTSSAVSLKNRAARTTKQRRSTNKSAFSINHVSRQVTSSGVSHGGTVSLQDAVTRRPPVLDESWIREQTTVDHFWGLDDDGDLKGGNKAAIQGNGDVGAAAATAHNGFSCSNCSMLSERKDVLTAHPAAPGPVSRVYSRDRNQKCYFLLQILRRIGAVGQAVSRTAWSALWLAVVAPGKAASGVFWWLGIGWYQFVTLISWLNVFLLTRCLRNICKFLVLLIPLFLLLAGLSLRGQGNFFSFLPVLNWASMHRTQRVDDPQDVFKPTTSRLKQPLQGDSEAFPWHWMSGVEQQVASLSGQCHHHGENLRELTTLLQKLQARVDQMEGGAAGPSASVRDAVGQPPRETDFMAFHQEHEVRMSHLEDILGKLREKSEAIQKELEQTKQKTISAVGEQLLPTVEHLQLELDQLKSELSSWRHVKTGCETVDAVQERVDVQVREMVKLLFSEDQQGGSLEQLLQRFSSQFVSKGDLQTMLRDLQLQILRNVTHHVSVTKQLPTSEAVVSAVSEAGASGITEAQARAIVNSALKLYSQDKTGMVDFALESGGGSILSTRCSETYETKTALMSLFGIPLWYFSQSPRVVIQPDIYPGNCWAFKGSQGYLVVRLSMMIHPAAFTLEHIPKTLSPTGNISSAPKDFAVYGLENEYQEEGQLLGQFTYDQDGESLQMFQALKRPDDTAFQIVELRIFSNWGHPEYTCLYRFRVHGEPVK

Row | effect of a mutation on the interaction | Variant
1 | disrupting interaction | P645A;P646A;P647A

Variants of: B2
Conditions: with sun1_mouse Sun1, Q9D666

Row | effect of a mutation on the interaction | Variant
2 | disrupting interaction strength | P645A;P646A;P647A

Variants of: B3
Conditions: with sun2_mouse Sun2, Q8BJS4

Row | effect of a mutation on the interaction | Variant
3 | disrupting interaction strength | P645A;P646A;P647A

— IntAct's records for PubMed 22826121
